± gives the standard deviation.
Assay: protein stability index of a GFP-peptide fusion (GPS, HEK-293T) (PSI 1-6); higher = more stable
[1] = treatment: DMSO, c terminus: a fixed tail appended
[2] = treatment: MLN4924 1 uM, 8 h, c terminus: a fixed tail appended
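Also: 24-mer peptide tiles fused after GFP, lentivirally expressed, FACS-sorted into six equal bins by GFP/DsRed ratio, decoded by Illumina sequencing, PSI is the read-weighted mean bin number.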

Sequence TSQKIAARAFAQRYLADLLPSVFG [RSPH3] has a protein stability index [1] of 2.12 ± 0.56 and a protein stability index [2] of 2.09 ± 0.18.
TSTGFDRHTSPVFSPANPESSMED [BCL2L13] gave a protein stability index [1] of 5.39 ± 0.28 and a protein stability index [2] of 5.16 ± 0.072.
For TSVDHDRAPVVGVRVNVLLSRYLI [DLC1], the protein stability index [2] was 3.12 ± 1.8.
For TTDDTTAMASASSSATGSFSYPE [MAGEA10], the protein stability index (treatment: DMSO, c terminus: native) was 5.28 ± 0.14 and the protein stability index (treatment: MLN4924 1 uM, 8 h, c terminus: native) was 5.4 ± 0.066.
Sequence TTFQDVYFVSESFEDAKEKMREFT [TPH1] has a protein stability index [1] of 3.61 ± 0.2 and a protein stability index [2] of 3.58 ± 0.29.
TTRHGEVGSALHRESFTSRQKTSG [C10orf62] showed a protein stability index [1] of 4.75 ± 0.38 and a protein stability index [2] of 4.78 ± 0.083.
Work on TVAASDPDTGDNARLTYSIVGNQV [PCDHGC5] yielded a protein stability index [1] of 4.36 ± 0.26 and a protein stability index [2] of 4.31 ± 0.18.
In the case of TVDCEPSDLFRLQEYNIPGVIQSV [CDS2], the protein stability index [1] is reported as 3.01 ± 0.29 and the protein stability index [2] is reported as 3.16 ± 0.25.
Work on TVNTHYFSIDEELVYENFYADFGP [CDC14A] yielded a protein stability index [1] of 2.37 ± 0.28 and a protein stability index [2] of 2.67 ± 0.4.
Work on TYPFLAMIMLKDRRMTVVGRLEGL [FAF2] yielded a protein stability index [1] of 2.66 ± 0.76 and a protein stability index [2] of 2.57 ± 0.46.
VAAGVLCELAQDKEAAEAIEAEGA [CTNNB1] showed a protein stability index [1] of 5.31 ± 0.12 and a protein stability index [2] of 5.44 ± 0.12.
VAEQVGIDKGDIPDLTQAPSSLME [SNAP91] showed a protein stability index [1] of 4.97 ± 0.38 and a protein stability index [2] of 5.03 ± 0.23.
Sequence VCEHLNLLEKDYFGLTYRDAENQK [EPB41L3] has a protein stability index [1] of 4.91 ± 0.31 and a protein stability index [2] of 4.69 ± 0.23.
Work on VCEVQVHGGSLLGKKYNWSCDDLM [GFOD1] yielded a protein stability index [1] of 2.58 ± 0.16 and a protein stability index [2] of 2.35 ± 0.32.
For VDGRLTYPTCGIGYPVSSAFAFQN [SASS6], the protein stability index [1] was 2.37 ± 0.23 and the protein stability index [2] was 2.38 ± 0.37.
Work on VDLSRILNEMRDQYEKMAEKNRKD [KRT17] yielded a protein stability index [1] of 3.52 ± 0.24 and a protein stability index [2] of 3.76 ± 0.36.
For VEGEQQAWFGFAGTPGYLSPEVLR [CAMK2A], the protein stability index [1] was 3.48 ± 0.21 and the protein stability index [2] was 3.49 ± 0.4.
In the case of VEGRHLYVLEFSDHPGIHEPLEPE [CPN1], the protein stability index [1] is reported as 3.04 ± 0.23 and the protein stability index [2] is reported as 3.28 ± 0.33.
For VERAAAAAAAAAGGDAGHAPFPPP [C6orf223], the protein stability index [1] was 5.08 ± 0.65 and the protein stability index [2] was 5.22 ± 0.4.
For VFKCSVSRETECSRVGKQSFIITL [CARM1], the protein stability index [1] was 2.65 ± 1.1 and the protein stability index [2] was 2.61 ± 0.67.
Work on VGGKIVGSLCAIAGVLTIALPVPV [KCNA4] yielded a protein stability index [1] of 3.78 ± 0.78 and a protein stability index [2] of 2.76 ± 0.46.
VGRGEVVTVRVPTHEEGSYLFWEF [ACBD3] showed a protein stability index [1] of 2.64 ± 0.44 and a protein stability index [2] of 2.34 ± 0.26.
Sequence VGRLYAVYDQAVSIFYDLPQGSGF [SMAD6] has a protein stability index [1] of 2.54 ± 0.47 and a protein stability index [2] of 2.39 ± 0.65.
With VGSVALTALVTVSSEEFEDKWFRK [C8orf76] the protein stability index [1] was 2.26 ± 0.19 and the protein stability index [2] was 2.35 ± 0.21.
In the case of VIAKWDYTAQQDQELDIKKNERLW [NCK2], the protein stability index [1] is reported as 3.28 ± 0.093 and the protein stability index [2] is reported as 3.4 ± 0.32.
With VIASGSSVGHNNLIPLANTGIVNH [CARM1] the protein stability index [1] was 3.11 ± 0.099 and the protein stability index [2] was 3.19 ± 0.23.
Work on VIEEAKTAFLLNIQLFEELQELLT [HMOX1] yielded a protein stability index [1] of 2.08 ± 0.32 and a protein stability index [2] of 2.38 ± 0.2.
In the case of VIVWDGDTTRQVQRISCFQSTVKC [WDR41], the protein stability index [1] is reported as 2.31 ± 0.31 and the protein stability index [2] is reported as 2.01 ± 0.11.
Sequence VKSRGKRLALEKVPKVGQRFNRIG [PI4K2A] has a protein stability index [1] of 3.23 ± 0.49 and a protein stability index [2] of 3.46 ± 0.21.
In the case of VLMAVSVHSERKLLPLVTLCDGNP [SCNN1D], the protein stability index [1] is reported as 2.4 ± 0.38 and the protein stability index [2] is reported as 2.32 ± 0.47.
VMSEGLGMRYAFIGPLETMHLNAE [CRYL1] gave a protein stability index [1] of 2.05 ± 0.23 and a protein stability index [2] of 2.05 ± 0.4.
Sequence VNGDGSRENGNNSSDKVRGIETLE [PHTF1] has a protein stability index [1] of 5.24 ± 0.32 and a protein stability index [2] of 5.22 ± 0.28.
VNIEWHRFRFGQDQLLLATGLNNG [WSB1] gave a protein stability index [1] of 2.76 ± 0.41 and a protein stability index [2] of 2.58 ± 0.45.
Work on VPRAGPLTVNTEAQQLLREFEEAT [FOXJ1] yielded a protein stability index [1] of 4.96 ± 0.19 and a protein stability index [2] of 4.9 ± 0.26.
Work on VPRPGTPQSPPSCRAPPPEARGIR [FCHO1] yielded a protein stability index [1] of 4.85 ± 0.42 and a protein stability index [2] of 4.85 ± 0.14.
With VPVHSFASLNIKTTVPEVEPPQDS [PRPH] the protein stability index [1] was 4.97 ± 0.2 and the protein stability index [2] was 4.99 ± 0.073.
VPYHIARIPYTKSQTEAHYSCQSK [P2RY14] gave a protein stability index [1] of 3.47 ± 0.17 and a protein stability index [2] of 3.53 ± 0.36.
With VQDEFLDTPCTNRGLPLLKTDFGS [DLC1] the protein stability index [1] was 3.85 ± 0.43 and the protein stability index [2] was 3.91 ± 0.41.
Sequence VQDKTPLYSQLLQAYKWSNKLQYH [MED27] has a protein stability index [1] of 2.18 ± 0.27 and a protein stability index [2] of 2.19 ± 0.25.
In the case of VQEAVLDKWVNDPHRMDRRLLALI [GOLPH3], the protein stability index [1] is reported as 2.29 ± 0.18 and the protein stability index [2] is reported as 2.52 ± 0.17.
For VQGLEGIKMAMVACGDAFTVAIGA [NEK8], the protein stability index [1] was 2.79 ± 0.71 and the protein stability index [2] was 2.95 ± 0.46.
VQHERIHTGDKPYKCAECGKSFCH [ZNF8] gave a protein stability index [1] of 4.54 ± 0.33 and a protein stability index [2] of 4.68 ± 0.16.
Sequence VQKRARSGPQPRLPPCLLPLSPPT [TRIB3] has a protein stability index [1] of 3.35 ± 0.2 and a protein stability index [2] of 3.46 ± 0.23.
VQRSPWLMMRMGILGRGLQEYQLP [TCAP] gave a protein stability index [1] of 2.3 ± 0.17 and a protein stability index [2] of 2.21 ± 0.48.
VRCGLLGSLGPVPVLRFDALWQVL [TRIM14] gave a protein stability index [1] of 2.29 ± 0.39 and a protein stability index [2] of 2.29 ± 0.49.

Source: the supplement of paper PMC10567573
